Paper PMC3576407, “N332-Directed Broadly Neutralizing Antibodies Use Diverse Modes of HIV-1 Recognition: Inferences from Heavy-Light Chain Complementation of Function” (PLoS ONE, 2013)

Experiments:
Test in all cases: ELISA; 200 ng gp120 coated on Maxisorb 96-well plates in PBS overnight at 4°C; blocked with PBS 5% dry milk; 25–50 µl antibody supernatant 1 h at RT; HRP goat anti-human IgG (H+L); TMB, OD450; absorbance normalised by the expression titer
Details in all cases: one partner purified
[1] = target: T1, HIV-1 CAAN gp120 monomeric protein (HIV-1 subtype B, isolate CAAN …, UniProt Q5G5U4, strain)
T1 construct: gp120 envelope glycoprotein (the gp120 product of Env gp160) of HIV-1 primary isolate CAAN, full-length gp120, monomeric

[2] = target: T2, HIV-1 BaL gp120 monomeric protein (HIV-1 subtype B, isolate BaL (clone not …, UniProt Q2MKA8, strain))
T2 construct: gp120 envelope glycoprotein (the gp120 product of Env gp160) of HIV-1 primary isolate BaL, full-length gp120, monomeric

[3] = target: T3, HIV-1 YU2 gp120 monomeric protein (HIV-1 clade B, primary isolate YU2, UniProt P35961)
T3 construct: gp120 envelope glycoprotein (the gp120 product of Env gp160) of HIV-1 primary isolate YU2, full-length gp120, monomeric

B1: PGT121 (wild-type IgG, PGT121 heavy chain with PGT121 light chain) (antibody, V domains shown)
VH: QMQLQESGPGLVKPSETLSLTCSVSGASISDSYWSWIRRSPGKGLEWIGYVHKSGDTNYSPSLKSRVNLSLDTSKNQVSLSLVAATAADSGKYYCARTLHGRRIYGIVAFNEWFTYFYMDVWGNGTQVTVSS
VL: DISVAPGETARISCGEKSLGSRAVQWYQHRAGQAPSLIIYNNQDRPSGIPERFSGSPDSPFGTTATLTITSVEAGDEADYYCHIWDSRVPTKWVFGGGTTLTVL
notes: PGT121 heavy chain; PGT121 light chain; also called PGT121-H/PGT121-L; source: HEK 293T cells (methods; the results say 293F), transient transfection in 96-well microplates, supernatant used directly
- binding result [1]: binds
- binding result [2]: binds

B2: PGT128 (wild-type IgG, PGT128 heavy chain with PGT128 light chain) (antibody, V domains shown)
VH: QPQLQESGPTLVEASETLSLTCAVSGDSTAACNSFWGWVRQPPGKGLEWVGSLSHCASYWNRGWTYHNPSLKSRLTLALDTPKNLVFLKLNSVTAADTATYYCARFGGEVLRYTDWPKPAWVDLWGRGTLVTVSS
VL: QSALTQPPSASGSPGQSITISCTGTSNNFVSWYQQHAGKAPKLVIYDVNKRPSGVPDRFSGSKSGNTASLTVSGLQTDDEAVYYCGSLVGNWDVIFGGGTKLTVL
notes: PGT128 heavy chain; PGT128 light chain; also called PGT128-H/PGT128-L; source: HEK 293T cells (methods; the results say 293F), transient transfection in 96-well microplates, supernatant used directly
- binding result [1]: binds
- binding result [3]: binds
